Measurements published in US12060433B2, “CD73 inhibitor and A2A/A2B adenosine receptor inhibitor combination therapy” (Incyte Corporation, priority 2020, dated 2024).

T1: human CD73 (SEQ ID NO: 70) (Homo sapiens, UniProt P21589)
T1 construct: purchased BPS Bioscience
T1 sequence (P21589 27-549): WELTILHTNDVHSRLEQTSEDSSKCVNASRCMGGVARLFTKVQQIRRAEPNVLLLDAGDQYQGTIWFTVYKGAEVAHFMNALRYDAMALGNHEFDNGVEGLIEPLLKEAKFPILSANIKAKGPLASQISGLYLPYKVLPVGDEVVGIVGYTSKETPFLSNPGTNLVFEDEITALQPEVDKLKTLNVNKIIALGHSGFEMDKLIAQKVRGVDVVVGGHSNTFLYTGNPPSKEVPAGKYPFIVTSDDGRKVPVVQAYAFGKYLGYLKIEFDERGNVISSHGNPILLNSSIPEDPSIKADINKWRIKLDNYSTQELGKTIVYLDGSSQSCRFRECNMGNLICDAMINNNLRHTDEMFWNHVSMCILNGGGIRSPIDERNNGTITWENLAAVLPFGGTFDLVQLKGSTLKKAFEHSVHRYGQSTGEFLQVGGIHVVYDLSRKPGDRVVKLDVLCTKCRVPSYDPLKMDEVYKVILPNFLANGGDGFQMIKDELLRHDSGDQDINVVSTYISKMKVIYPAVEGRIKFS


Molecular target: T1, human CD73 (SEQ ID NO: 70)
Assay: SPR (Biacore 8K) binding affinity and kinetics to human CD73
Details: human CD73, open conformation, 25° C.
Experimental: The SPR running buffer (10 mM HEPES, 150 mM NaCl, 3 mM EDTA and 0.05% v/v Surfactant P20, pH 7.4) was prepared from 10×HBS-EP Buffer (GE Healthcare). Anti-human Fc antibodies (GE Healthcare) were immobilized via amine coupling on all sixteen flow cells of an S series sensor chip CM5 (GE Healthcare). The immobilization levels were ˜9000 RU for all flow cells. The desired capturing level of anti-CD73 antibody was achieved by flowing appropriate concentration of anti-CD73 antibody through the active flow cell of each channel. The non-cleavable ADP analogue APCP (adenosine-5′-(α,β-methylene) diphosphate) with the presence of Zn^2+ can be used to shift the CD73 conformational equilibrium from open towards closed. Therefore, recombinant CD73 was incubated with SPR running buffer in the presence of 100 μM APCP and 10 μM ZnCl2 (closed SPR running buffer) to study the binding of anti-CD73 antibody to the CD73 in the closed conformation. To achieve this, the ABA injection feature in Biacore 8K was used. For open conformation, the ABA injection sequence started with 60 seconds injection of running buffer. Then, CD73 3-fold serial dilution concentration series prepared from CD73 stock (BPS Bioscience) and running buffer were injected for 180 seconds immediately followed by running buffer for 240 seconds. For closed conformation, the normal SPR running buffer was replaced by closed SPR running buffer. Surface was regenerated with 30 seconds injection of 3 M MgCl2. […] Binding affinities and kinetic association and dissociation rate constants to human, cynomolgus, and mouse CD73 in either open or closed conformations are shown in Table 8 below. The results in Table 8 ensure cynomolgus pharmacokinetic data will reflect human pharmacokinetic data.
Binding affinities and kinetic association and dissociation rate constants to human, cynomolgus, and mouse CD73 in either open or closed conformations are shown in Table 9 below.

Row | ka | kd | Molecule
1 | 770000 M⁻¹ s⁻¹ | 0.00176 s⁻¹ | CL25_hu_8-4: humanized CL25 antibody, VH and VL in FIG. 1B (antibody, V domains shown) VH: QVQLVQSGAEVKKPGASVKVSCKASGYTFTSYGLSWVRQATGQGLEWMGEIYPGSGNTYYNEKFKGRVTMTRNTSISTAYMELSSLRSEDTAVYYCARYDYLGSSYGFDYWGAGTTVTVSS VL: DIQMTQSPSSLSASVGDRVTITCKASQDVSTAVAWYQQKPGKAPKLLLYSASYRYSGVPSRFSGSGSGTDYTLTISSLQPEDFATYYCQQHYNTPYTFGGGTKLEIK
2 | 382000 M⁻¹ s⁻¹ | 0.00264 s⁻¹ | CL25_hu_9-4: humanized CL25 antibody, VH and VL in FIG. 1C (antibody, V domains shown) VH: QVQLVQSGAEVKKPGSSVKVSCKASGYTFTSYGLSWVRQAPGQGLEWMGEIYPGSGNTYYNEKFKGRVTITADESTSTAYMELSSLRSEDTAVYYCARYDYLGSSYGFDYWGAGTTVTVSS VL: DIQMTQSPSSLSASVGDRVTITCKASQDVSTAVAWYQQKPGKAPKLLLYSASYRYSGVPSRFSGSGSGTDYTLTISSLQPEDFATYYCQQHYNTPYTFGGGTKLEIK
3 | >1e+06 M⁻¹ s⁻¹ | 0.000949 s⁻¹ | CL25_hu_8-5: humanized CL25 antibody, VH and VL in FIG. 1B (antibody, V domains shown) VH: QVQLVQSGAEVKKPGASVKVSCKASGYTFTSYGLSWVRQATGQGLEWMGEIYPGSGNTYYNEKFKGRVTMTRNTSISTAYMELSSLRSEDTAVYYCARYDYLGSSYGFDYWGAGTTVTVSS VL: DIVMTQSPDSLAVSLGERATINCKASQDVSTAVAWYQQKPGQPPKLLIYSASYRYSGVPDRFSGSGSGTDFTLTISSLQAEDVAVYYCQQHYNTPYTFGGGTKLEIK
4 | 624000 M⁻¹ s⁻¹ | 0.00155 s⁻¹ | CL25_hu_11-4: humanized CL25 antibody, VH and VL in FIG. 1A (antibody, V domains shown) VH: QVQLVQSGAEVKKPGASVKVSCKASGYTFTSYGLSWVRQATGQGLEWMGEIYPGSGNTYYNEKFKGRVTMTANTSISTAYMELSSLRSEDTAVYYCARYDYLGSSYGFDYWGAGTTVTVSS VL: DIQMTQSPSSLSASVGDRVTITCKASQDVSTAVAWYQQKPGKAPKLLLYSASYRYSGVPSRFSGSGSGTDYTLTISSLQPEDFATYYCQQHYNTPYTFGGGTKLEIK
5 | 887000 M⁻¹ s⁻¹ | 0.00107 s⁻¹ | CL25_hu_10-4: humanized CL25 antibody, VH and VL in FIG. 1A (antibody, V domains shown) VH: EVQLVQSGAEVKKPGESLKISCKGSGYTFTSYGLSWVRQMPGKGLEWMGEIYPGSGNTYYNEKFKGQVTISADKSISTAYLQWSSLKASDTAMYYCARYDYLGSSYGFDYWGAGTTVTVSS VL: DIQMTQSPSSLSASVGDRVTITCKASQDVSTAVAWYQQKPGKAPKLLLYSASYRYSGVPSRFSGSGSGTDYTLTISSLQPEDFATYYCQQHYNTPYTFGGGTKLEIK
6 | 715000 M⁻¹ s⁻¹ | 0.00111 s⁻¹ | CL25_hu_8-6: humanized CL25 antibody, VH and VL in FIG. 1C (antibody, V domains shown) VH: QVQLVQSGAEVKKPGASVKVSCKASGYTFTSYGLSWVRQATGQGLEWMGEIYPGSGNTYYNEKFKGRVTMTRNTSISTAYMELSSLRSEDTAVYYCARYDYLGSSYGFDYWGAGTTVTVSS VL: AIRMTQSPSSFSASTGDRVTITCKASQDVSTAVAWYQQKPGKAPKLLIYSASYRYSGVPSRFSGSGSGTDFTLTISCLQSEDFATYYCQQHYNTPYTFGGGTKLEIK
7 | 565000 M⁻¹ s⁻¹ | 0.00114 s⁻¹ | CL25_hu_9-5: humanized CL25 antibody, VH and VL in FIG. 1C (antibody, V domains shown) VH: QVQLVQSGAEVKKPGSSVKVSCKASGYTFTSYGLSWVRQAPGQGLEWMGEIYPGSGNTYYNEKFKGRVTITADESTSTAYMELSSLRSEDTAVYYCARYDYLGSSYGFDYWGAGTTVTVSS VL: DIVMTQSPDSLAVSLGERATINCKASQDVSTAVAWYQQKPGQPPKLLIYSASYRYSGVPDRFSGSGSGTDFTLTISSLQAEDVAVYYCQQHYNTPYTFGGGTKLEIK
8 | 424000 M⁻¹ s⁻¹ | 0.000953 s⁻¹ | CL25_hu_9-6: humanized CL25 antibody, VH and VL in FIG. 1C (antibody, V domains shown) VH: QVQLVQSGAEVKKPGSSVKVSCKASGYTFTSYGLSWVRQAPGQGLEWMGEIYPGSGNTYYNEKFKGRVTITADESTSTAYMELSSLRSEDTAVYYCARYDYLGSSYGFDYWGAGTTVTVSS VL: AIRMTQSPSSFSASTGDRVTITCKASQDVSTAVAWYQQKPGKAPKLLIYSASYRYSGVPSRFSGSGSGTDFTLTISCLQSEDFATYYCQQHYNTPYTFGGGTKLEIK
9 | 550000 M⁻¹ s⁻¹ | 0.00101 s⁻¹ | CL25_hu_11-6: humanized CL25 antibody, VH and VL in FIG. 1B (antibody, V domains shown) VH: QVQLVQSGAEVKKPGASVKVSCKASGYTFTSYGLSWVRQATGQGLEWMGEIYPGSGNTYYNEKFKGRVTMTANTSISTAYMELSSLRSEDTAVYYCARYDYLGSSYGFDYWGAGTTVTVSS VL: AIRMTQSPSSFSASTGDRVTITCKASQDVSTAVAWYQQKPGKAPKLLIYSASYRYSGVPSRFSGSGSGTDFTLTISCLQSEDFATYYCQQHYNTPYTFGGGTKLEIK
10 | 524000 M⁻¹ s⁻¹ | 0.00092 s⁻¹ | CL25_hu_10-6: humanized CL25 antibody, VH and VL in FIG. 1A (antibody, V domains shown) VH: EVQLVQSGAEVKKPGESLKISCKGSGYTFTSYGLSWVRQMPGKGLEWMGEIYPGSGNTYYNEKFKGQVTISADKSISTAYLQWSSLKASDTAMYYCARYDYLGSSYGFDYWGAGTTVTVSS VL: AIRMTQSPSSFSASTGDRVTITCKASQDVSTAVAWYQQKPGKAPKLLIYSASYRYSGVPSRFSGSGSGTDFTLTISCLQSEDFATYYCQQHYNTPYTFGGGTKLEIK
11 | 799000 M⁻¹ s⁻¹ | 0.00117 s⁻¹ | CL25_hu_11-5: humanized CL25 antibody, VH and VL in FIG. 1B (antibody, V domains shown) VH: QVQLVQSGAEVKKPGASVKVSCKASGYTFTSYGLSWVRQATGQGLEWMGEIYPGSGNTYYNEKFKGRVTMTANTSISTAYMELSSLRSEDTAVYYCARYDYLGSSYGFDYWGAGTTVTVSS VL: DIVMTQSPDSLAVSLGERATINCKASQDVSTAVAWYQQKPGQPPKLLIYSASYRYSGVPDRFSGSGSGTDFTLTISSLQAEDVAVYYCQQHYNTPYTFGGGTKLEIK
